In patent US20120034160A1 (AbbVie / Abbott, published 2012):

T1: Recombinant Human IL-17 (human, UniProt Q16552 20-155, limits assumed)
T1 construct: bought reagent
T1 sequence (looked up): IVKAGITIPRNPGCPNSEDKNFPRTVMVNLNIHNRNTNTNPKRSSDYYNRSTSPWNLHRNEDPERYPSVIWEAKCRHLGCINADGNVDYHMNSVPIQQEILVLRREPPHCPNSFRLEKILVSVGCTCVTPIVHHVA

B1: DVD1593 (bispecific antibody, human IgG1, kappa)
heavy: not shown
light: DTQVTQSPSSLSASVGDRVTITCITSTDIDVDMNWYQQKPGKPPKLLISQGNTLRPGVPSRFSSSGSGTDFTFTISSLQPEDFATYYCLQSDNLPLTFGQGTKLEIKRTVAAPSVFIFPPDIQMTQSPSSLSASVGDRVTITCRASSGIISYIDWFQQKPGKAPKRLIYATFDLASGVPSRFSGSGSGTDYTLTISSLQPEDFATYYCRQVGSYPETFGQGTKLEIKRTVAAPSVFIFPPSDEQLKSGTASVVCLLNNFYPREAKVQWKVDNALQSGNSQESVTEQDSKDSTYSLSSTLTLSKADYEKHKVYACEVTHQGLSSPVTKSFNRGEC
notes: DVD-Ig, outer AB270, inner AB273, linker set 2; V1 wt hIgG1, V2 kappa; also called DVD1593H; DVD1593L
B2: DVD1595 (bispecific antibody, human IgG1, kappa)
heavy: not shown
light: DTVVTQSPAFLSVTPGEKVTITCITSTDIDVDMNWYQQKPDQPPKLLISQGNTLRPGVPSRFSSSGSGTDFTFTISSLEAEDAATYYCLQSDNLPLTFGQGTKLEIKRTVAAPSVFIFPPDIQMTQSPSSLSASVGDRVTITCRASSGIISYIDWFQQKPGKAPKRLIYATFDLASGVPSRFSGSGSGTDYTLTISSLQPEDFATYYCRQVGSYPETFGQGTKLEIKRTVAAPSVFIFPPSDEQLKSGTASVVCLLNNFYPREAKVQWKVDNALQSGNSQESVTEQDSKDSTYSLSSTLTLSKADYEKHKVYACEVTHQGLSSPVTKSFNRGEC
notes: DVD-Ig, outer AB271, inner AB273, linker set 2; V1 wt hIgG1, V2 kappa; also called DVD1595H; DVD1595L
B3: DVD1262 (bispecific antibody, human IgG1, kappa)
heavy: not shown
light: DIQMTQSPSSLSASVGDRVTITCRASGNIHNYLTWYQQTPGKAPKLLIYNAKTLADGVPSRFSGSGSGTDYTFTISSLQPEDIATYYCQHFWSIPYTFGQGTKLQITRTVAAPDIQMTQSPSSLSASVGDRVTITCRASSGIISYIDWFQQKPGKAPKRLIYATFDLASGVPSRFSGSGSGTDYTLTISSLQPEDFATYYCRQVGSYPETFGQGTKLEIKRTVAAPSVFIFPPSDEQLKSGTASVVCLLNNFYPREAKVQWKVDNALQSGNSQESVTEQDSKDSTYSLSSTLTLSKADYEKHKVYACEVTHQGLSSPVTKSFNRGEC
notes: V1 wt hIgG1, V2 kappa; also called DVD1262H; DVD1262L
B4: DVD1264 (bispecific antibody, human IgG1, kappa)
heavy: not shown
light: B3 light
notes: V1 wt hIgG1, V2 kappa; also called DVD1264H; DVD1264L
B5: DVD1591 (bispecific antibody, human IgG1, kappa)
heavy: not shown
light: DIQMTQSPSSLSASVGDRVTITCRASGNIHNYLTWYQQTPGKAPKLLIYNAKTLADGVPSRFSGSGSGTDYTFTISSLQPEDIATYYCQHFWSIPYTFGQGTKLQITRTVAAPSVFIFPPDIQMTQSPSSLSASVGDRVTITCRASSGIISYIDWFQQKPGKAPKRLIYATFDLASGVPSRFSGSGSGTDYTLTISSLQPEDFATYYCRQVGSYPETFGQGTKLEIKRTVAAPSVFIFPPSDEQLKSGTASVVCLLNNFYPREAKVQWKVDNALQSGNSQESVTEQDSKDSTYSLSSTLTLSKADYEKHKVYACEVTHQGLSSPVTKSFNRGEC
notes: V1 wt hIgG1, V2 kappa; also called DVD1591H; DVD1591L
B6: DVD1268 (bispecific antibody, human IgG1, kappa)
heavy: not shown
light: DTVVTQSPAFLSVTPGEKVTITCITSTDIDVDMNWYQQKPDQPPKLLISQGNTLRPGVPSRFSSSGSGTDFTFTISSLEAEDAATYYCLQSDNLPLTFGQGTKLEIKRTVAAPDIQMTQSPSSLSASVGDRVTITCRASSGIISYIDWFQQKPGKAPKRLIYATFDLASGVPSRFSGSGSGTDYTLTISSLQPEDFATYYCRQVGSYPETFGQGTKLEIKRTVAAPSVFIFPPSDEQLKSGTASVVCLLNNFYPREAKVQWKVDNALQSGNSQESVTEQDSKDSTYSLSSTLTLSKADYEKHKVYACEVTHQGLSSPVTKSFNRGEC
notes: DVD-Ig, outer AB271, inner AB273, linker set 1; V1 wt hIgG1, V2 kappa; also called DVD1268H; DVD1268L

biological target: T1, Recombinant Human IL-17; assay: Biacore SPR; C-terminal VD
How it was run: (§1)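 Reported constants are kon (M⁻¹s⁻¹), koff (s⁻¹) and KD, calculated as koff/kon from a global 1:1 Langmuir fit. Antigen at 10−200 nM was passed over antibody or DVD-Ig captured on an anti-mouse IgG Fcγ surface in HBS-EP pH 7.4 at 25° C.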

| Kd [nM] | koff [s⁻¹] | kon [M⁻¹ s⁻¹] | Binder |
| --- | --- | --- | --- |
| 0.027 | 9.2e-06 | 340000 | B1 |
| 0.0043 | 6e-06 | 1.4e+06 | B2 |
| 12 | 0.0001 | 8500 | B3 |
| 0.3 | 1.1e-05 | 37000 | B4 |
| < 0.0032 | < 1e-06 | 310000 | B5 |
| < 0.02 | < 1e-06 | 51000 | B6 |

biological target: T2, Recombinant Human IL-1β (human, UniProt P01584 117-269); assay: Biacore SPR; N-terminal VD
T2 construct: bought reagent; also called IL-1B
How it was run: as §1

| Kd [nM] | koff [s⁻¹] | kon [M⁻¹ s⁻¹] | Binder |
| --- | --- | --- | --- |
| 0.064 | 0.00047 | 7.4e+06 | B1 |
| 0.055 | 0.00041 | 7.4e+06 | B2 |
| 0.033 | 4.8e-05 | 1.4e+06 | B3 |
| 0.024 | 2.2e-05 | 940000 | B4 |
| 0.032 | 3.1e-05 | 960000 | B5 |
| 0.067 | 0.00057 | 8.5e+06 | B6 |
